{"source": "paper PMC10057847", "about": "“Precision engineering of biological function with large-scale measurements and machine learning” (PLOS ONE, 2023)", "molecules": {"B1": {"name": "pVER-IPTG-144: LacI variant: V15I F161I A266T K290R M347I (protein, UniProt P03023 1-360, looked up, variant V15I F161I A266T K290R M347I)", "Lactose operon repressor": "MKPVTLYDVAEYAGISYQTVSRVVNQASHVSAKTREKVEAAMAELNYIPNRVAQQLAGKQSLLIGVATSSLALHAPSQIVAAIKSRADQLGASVVVSMVERSGVEACKAAVHNLLAQRVSGLIINYPLDDQDAIAVEAACTNVPALFLDVSDQTPINSIIISHEDGTRLGVEHLVALGHQQIALLAGPLSSVSARLRLAGWHKYLTRNQIQPIAEREGDWSAMSGFQQTMQMLNEGIVPTAMLVANDQMALGAMRAITESGLRVGTDISVVGYDDTEDSSCYIPPLTTIRQDFRLLGQTSVDRLLQLSQGQAVKGNQLLPVSLVKRKTTLAPNTQTASPRALADSLIQLARQVSRLESGQ"}, "B2": {"name": "pVER-IPTG-206: LacI variant: V95M A337T (protein, UniProt P03023 1-360, looked up, variant V95M A337T)", "Lactose operon repressor": "B1 Lactose operon repressor with I15V, V95M, I161F, T266A, R290K, A337T, I347M"}, "B3": {"name": "pVER-IPTG-002(V136E): LacI variant: V96E V136E T154I S158R V238D M254I V264I (protein, UniProt P03023 1-360, looked up, variant V96E V136E T154I S158R V238D M254I V264I)", "Lactose operon repressor": "MKPVTLYDVAEYAGVSYQTVSRVVNQASHVSAKTREKVEAAMAELNYIPNRVAQQLAGKQSLLIGVATSSLALHAPSQIVAAIKSRADQLGASVVESMVERSGVEACKAAVHNLLAQRVSGLIINYPLDDQDAIAEEAACTNVPALFLDVSDQIPINRIIFSHEDGTRLGVEHLVALGHQQIALLAGPLSSVSARLRLAGWHKYLTRNQIQPIAEREGDWSAMSGFQQTMQMLNEGIDPTAMLVANDQMALGAIRAITESGLRIGADISVVGYDDTEDSSCYIPPLTTIKQDFRLLGQTSVDRLLQLSQGQAVKGNQLLPVSLVKRKTTLAPNTQTASPRALADSLMQLARQVSRLESGQ"}, "B4": {"name": "pVER-IPTG-WT(F161V): LacI variant: F161V (protein, UniProt P03023 1-360, looked up, variant F161V)", "Lactose operon repressor": "B1 Lactose operon repressor with I15V, I161V, T266A, R290K, I347M"}, "B5": {"name": "pVER-IPTG-003: LacI variant: V52M H74Y V119I G200V R207H L262M K290R Q306H A337V Q352* (protein, UniProt P03023 1-360, looked up, variant V52M H74Y V119I G200V R207H L262M K290R Q306H A337V Q352*)", "Lactose operon repressor": "MKPVTLYDVAEYAGVSYQTVSRVVNQASHVSAKTREKVEAAMAELNYIPNRMAQQLAGKQSLLIGVATSSLALYAPSQIVAAIKSRADQLGASVVVSMVERSGVEACKAAVHNLLAQRISGLIINYPLDDQDAIAVEAACTNVPALFLDVSDQTPINSIIFSHEDGTRLGVEHLVALGHQQIALLAGPLSSVSARLRLAVWHKYLTHNQIQPIAEREGDWSAMSGFQQTMQMLNEGIVPTAMLVANDQMALGAMRAITESGMRVGADISVVGYDDTEDSSCYIPPLTTIRQDFRLLGQTSVDRLLHLSQGQAVKGNQLLPVSLVKRKTTLAPNTQTVSPRALADSLMQLARVSRLESGQ"}, "B6": {"name": "pVER-IPTG-WT(L56M/A194V): LacI variant: L56M A194V (protein, UniProt P03023 1-360, looked up, variant L56M A194V)", "Lactose operon repressor": "B1 Lactose operon repressor with I15V, L56M, I161F, A194V, T266A, R290K, I347M"}, "B7": {"name": "pVER-IPTG-WT(L56M/D130E): LacI variant: L56M D130E (protein, UniProt P03023 1-360, looked up, variant L56M D130E)", "Lactose operon repressor": "B1 Lactose operon repressor with I15V, L56M, D130E, I161F, T266A, R290K, I347M"}, "B8": {"name": "pVER-IPTG-138: LacI variant: S28G T34M Q60R A81S E100K L148V S221N V271L (protein, UniProt P03023 1-360, looked up, variant S28G T34M Q60R A81S E100K L148V S221N V271L)", "Lactose operon repressor": "MKPVTLYDVAEYAGVSYQTVSRVVNQAGHVSAKMREKVEAAMAELNYIPNRVAQQLAGKRSLLIGVATSSLALHAPSQIVSAIKSRADQLGASVVVSMVKRSGVEACKAAVHNLLAQRVSGLIINYPLDDQDAIAVEAACTNVPALFVDVSDQTPINSIIFSHEDGTRLGVEHLVALGHQQIALLAGPLSSVSARLRLAGWHKYLTRNQIQPIAEREGDWNAMSGFQQTMQMLNEGIVPTAMLVANDQMALGAMRAITESGLRVGADISVLGYDDTEDSSCYIPPLTTIKQDFRLLGQTSVDRLLQLSQGQAVKGNQLLPVSLVKRKTTLAPNTQTASPRALADSLMQLARQVSRLESGQ"}, "B9": {"name": "pVER-IPTG-WT(G200C): LacI variant: G200C (protein, UniProt P03023 1-360, looked up, variant G200C)", "Lactose operon repressor": "B1 Lactose operon repressor with I15V, I161F, G200C, T266A, R290K, I347M"}, "B10": {"name": "pVER-IPTG-WT(I83M): LacI variant: I83M (protein, UniProt P03023 1-360, looked up, variant I83M)", "Lactose operon repressor": "B1 Lactose operon repressor with I15V, I83M, I161F, T266A, R290K, I347M"}}, "note": "Substitutions are numbered along the chain they refer to. Names and notes keep the numbering of the source.", "data": [{"tested_on": "eYFP under the control of the lactose operator (lacO)", "experiment": "in vivo dose-response curves of LacI variants to IPTG measured with flow cytometry (eYFP output), fit to the Hill equation", "assay_type": "cell-based, E. coli", "details": "IPTG dose-response, Hill fit of cytometry data", "procedure": "(§1) Dose-response curves were measured with flow cytometry using E. coli MG1655Δlac transformed with variants of the pVER plasmid, described previously. The plasmid contained different variants of the lacI coding DNA sequence (CDS), as described in the text, and an expression cassette with enhanced yellow fluorescent protein (eYFP) under the control of the lactose operator (lacO). The lacI CDS was verified with Sanger sequencing for each variant.\n(§2) All cultures were grown in a rich M9 media (3 g/L KH2PO4, 6.78 g/L Na2HPO4, 0.5 g/L NaCl, 1 g/L NH4Cl, 0.1 mmol/L CaCl2, 2 mmol/L MgSO4, 4% glycerol, and 20 g/L casamino acids) supplemented with 50 μg/mL kanamycin.\n(§3) For flow cytometry measurements, E. coli cultures were grown in a laboratory automation system that included an automated liquid handler (Hamilton, STAR), an automated plate sealer (4titude, a4S), an automated de-sealer (Brooks, XPeel), and two multi-mode plate readers (BioTek, Neo2SM).\n(§4) Cultures were grown in clear polystyrene 96-well plates with 1.1 mL square wells (4titude, 4ti-0255). The culture volume per well was 0.5 mL. Before incubation, each 96-well growth plate was sealed by the automated plate sealer with a gas permeable membrane (4titude, 4ti-0598). Growth plates were incubated in one of the multi-mode plate readers at 37°C with a 1°C gradient applied from the bottom to the top of the incubation chamber to minimize condensation on the inside of the membrane. The plate readers were set for double-orbital shaking at 807 cycles per minute. Optical density at 600 nm (OD600) was measured every 5 minutes during incubation, with continuous shaking applied between measurements (optical density at 700 nm and YFP fluorescence were also measured every 5 minutes). After incubation, the automated de-sealer was used to remove the gas-permeable membrane from each 96-well plate to enable automated passaging of cultures and sample preparation for flow cytometry measurements.\n(§5) For each measurement, starter cultures were prepared from glycerol freezer stock in 5 mL of rich M9 media in a 14 mL snap-cap culture tubes. Starter cultures were incubated at 37°C with orbital shaking at 300 rpm for between 4 h and 24 h prior to loading the automation system. The automation system then prepared 96-well growth plates, sealed and de-sealed the growth plates, incubated the growth plates, and prepared flow cytometry sample plates. The automated culture protocol consisted of the following steps: […]", "values": [{"molecule": "B1", "n: the Hill coefficient": 1.459}, {"molecule": "B2", "n: the Hill coefficient": 1.594}, {"molecule": "B3", "n: the Hill coefficient": 2.088}, {"molecule": "B4", "n: the Hill coefficient": 1.594}, {"molecule": "B5", "n: the Hill coefficient": 0.7133}, {"molecule": "B6", "n: the Hill coefficient": 1.42}, {"molecule": "B7", "n: the Hill coefficient": 1.42}]}, {"tested_on": "eYFP under the control of the lactose operator (lacO)", "experiment": "in vivo dose-response curves of LacI variants to IPTG measured with flow cytometry (eYFP output), fit to the Hill equation", "assay_type": "cell-based, E. coli", "details": "basal output, Hill fit of cytometry data, posterior mean; value is log10", "procedure": "as §1, §2, §3, §4, §5", "units": {"log_g0: the base-10 logarithm of G0 (in MEF)": "MEF"}, "values": [{"molecule": "B3", "log_g0: the base-10 logarithm of G0 (in MEF)": 4.551}, {"molecule": "B5", "log_g0: the base-10 logarithm of G0 (in MEF)": 4.508}]}, {"tested_on": "eYFP under the control of the lactose operator (lacO)", "experiment": "in vivo dose-response curves of LacI variants to IPTG measured with flow cytometry (eYFP output), fit to the Hill equation", "assay_type": "cell-based, E. coli", "details": "saturating output, Hill fit of cytometry data, posterior mean; value is log10", "procedure": "as §1, §2, §3, §4, §5", "units": {"log_ginf: the base-10 logarithm of G∞ (in MEF)": "MEF"}, "values": [{"molecule": "B8", "log_ginf: the base-10 logarithm of G∞ (in MEF)": 4.407}, {"molecule": "B3", "log_ginf: the base-10 logarithm of G∞ (in MEF)": 1.924}, {"molecule": "B9", "log_ginf: the base-10 logarithm of G∞ (in MEF)": 4.489}, {"molecule": "B10", "log_ginf: the base-10 logarithm of G∞ (in MEF)": 4.268}, {"molecule": "B5", "log_ginf: the base-10 logarithm of G∞ (in MEF)": 3.573}]}]}
